# Measurements from US20150010566A1 (AIMM THERAPEUTICS B V, published 2015).
# Legend:
# [1] = target: T1, H3 HA1 subunit (A/Aichi/2/1968, HA1 subunit, Met-1-Arg 345) (Influenza A virus H3N2 A/Aichi/2/1968, UniProt P03437 17-345); test: ELISA; antigen coated 1 µg/ml; recombinant antibody; design: concentration or dose not given beside the values
# T1 construct: range 1-345; also called H3N2 A/Aichi/2/1968 HA1 subunit
# [2] = target: T1, H3 HA1 subunit (A/Aichi/2/1968, HA1 …); test: ELISA; HA1 subunit coated 1 µg/ml; recombinant antibody
binder,measurement,setting,value
"AT10-004 (antibody, V domains shown) VH: QVQLVQSGAEVRKPGASVKVSCKASGYTFTRHGISWVRQAPGQGLEWMGWISAYTGDTDYAQKFQGRVTMTTDTSTNTAYMELRSLRSDDAAVYYCARLRLQGEVVVPPSQSNWFDPWGQGTLVTVSS VL: EIVLTQSPATLSLYPGERATLSCRASQSVSRYLAWYQQKPGQAPRLLIYDASNRATGIPARFSGSGSGTDFTLTISSLEPEDFAVYYCQQRSNWLKITFGQGTRLEIKG",OD 450 nm,[1],0.096 OD 450 nm
same,binding result,[2],no binding
"AT10-001 (antibody, V domains shown) VH: EVQLLESGGGLVQPGGSLRLSCAASGFSFSTYAMSWVRQAPGKGLEWVSGISGSGESTYYADSVKGRFTVSRDNSKNTLYLQMNSLRAEDTAVYYCAKQGDHIAWLLRGINFDYWGQGVLVTVSS VL: EIVLTQSPGTLSLSPGERATLSCRASQSVSSSYLAWYQQKPGQAPRLLIYGASTRATGIPDRFSGRGSGTDFTLTISSLEPEDFAVYYCQNYGSPFLFTFGPGTKVDIKR",OD 450 nm,[1],0.01 OD 450 nm
same,binding result,[2],no binding
"AT10-002 (antibody, V domains shown) VH: QLQLQESGPRLVKPSETLSLTCSVSGVSISSSNYYWGWIRQPPGKGLEWIGTIYHSGSTYYNPSLKSRLIISVDTSKNQFYLQLTSLTAADSAVYYCATGGGFGWSQTYFGYWGQGTLVTASS VL: QSALTQPASVSGSPGQSITISCTGTSSDVGAYNYVSWYQHHPGKAPKLMIYDVTYRPSGVSTRFSGSKSGNTASLTISGLQAEDEADYYCSSQSRSSTLVIFGGGTKLTVLG",OD 450 nm,[1],-0.006 OD 450 nm
"AT10-003 (antibody, V domains shown) VH: QVHLVQSGAEVRKPGASVKVSCKVSGYTLNELSIHWLRQAPGRGLEWMGSFDPEDGETIYAQKFQGRVTMTGDTSTDTAYLELTSLRSEDTALYYCARGWGAVTSPFDFWGQGTLVTVSS VL: DIVMTQSPLSLPVTPGEPASISCRSSQSLLHSNGHIYFDWYLQKPGQSPQLLIYLVSKRASGVPDRFSGSGSGTDFTLKISRVEAEDVGVYYCMQALETPFTFGPGTKVHIKR",OD 450 nm,[1],1.28 OD 450 nm
